Data on one protein can be found in paper PMC5095800, “A standardized production pipeline for high profile targets from Mycobacterium tuberculosis” (Proteomics. Clinical Applications, 2016).

The data set concerns the molecule itself. Put plainly: SEC. (In gel filtration, larger molecules generally elute earlier.)

B1: Ferritin BfrB (natural protein)
chain: MTEYEGPKTKFHALMQEQIHNEFTAAQQYVAIAVYFDSEDLPQLAKHFYSQAVEERNHAMMLVQHLLDRDLRVEIPGVDTVRNQFDRPREALALALDQERTVTDQVGRLTAVARDEGDFLGEQFMQWFLQEQIEEVALMATLVRVADRAGANLFELENFVAREVDVAPAASGAPHAAGGRL
notes: also called Rv3841; copies: 24
One may read the stoichiometry N as the number of molecules, sites or subunits per partner or assembly. Turning to B1, the “stoichiometry N” value came out at 24.
